Measurements taken from patent US20240424062A1 (MEDERIS DIABETES, published 2024).

Legend:
Experiment in all cases: cell-based or functional assay
[1] = target: glucagon receptor (human, cloned into CHO cells) (human, UniProt P47871 26-477)
[2] = target: GLP-1 receptor (human, cloned into CHO cells) (human, UniProt P43220 24-463)
[3] = target: T1, GLP-1 receptor (murine cell line) (murine, UniProt O35659 22-463)
T1 sequence (looked up): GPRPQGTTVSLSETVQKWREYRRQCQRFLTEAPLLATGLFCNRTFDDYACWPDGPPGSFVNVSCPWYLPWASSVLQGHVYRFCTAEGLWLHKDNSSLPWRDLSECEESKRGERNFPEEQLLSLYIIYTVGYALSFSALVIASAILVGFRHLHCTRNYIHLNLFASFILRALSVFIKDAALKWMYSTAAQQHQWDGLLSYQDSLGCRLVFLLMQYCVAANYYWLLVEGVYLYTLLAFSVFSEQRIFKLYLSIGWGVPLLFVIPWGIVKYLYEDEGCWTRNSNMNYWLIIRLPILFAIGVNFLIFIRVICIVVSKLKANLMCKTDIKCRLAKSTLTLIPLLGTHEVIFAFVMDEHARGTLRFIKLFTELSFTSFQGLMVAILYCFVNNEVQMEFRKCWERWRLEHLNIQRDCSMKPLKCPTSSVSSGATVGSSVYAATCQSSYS

Chain of glucagon receptor (human, cloned into CHO cells) (P47871 26-477): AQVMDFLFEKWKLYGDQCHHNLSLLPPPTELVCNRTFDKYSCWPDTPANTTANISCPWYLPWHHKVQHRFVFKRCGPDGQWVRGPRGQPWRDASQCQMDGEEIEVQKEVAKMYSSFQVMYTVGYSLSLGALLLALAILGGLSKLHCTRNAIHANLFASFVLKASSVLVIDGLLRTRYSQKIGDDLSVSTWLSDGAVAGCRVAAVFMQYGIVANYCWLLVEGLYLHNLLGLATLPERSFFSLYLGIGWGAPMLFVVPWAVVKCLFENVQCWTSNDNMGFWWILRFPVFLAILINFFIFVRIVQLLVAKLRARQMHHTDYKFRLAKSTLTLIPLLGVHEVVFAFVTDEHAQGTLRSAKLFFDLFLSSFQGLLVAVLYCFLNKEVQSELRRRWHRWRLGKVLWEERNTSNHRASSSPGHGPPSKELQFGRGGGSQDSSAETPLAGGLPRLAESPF

B1: EU-A992 (peptide)
peptide: HXQGTFTSDYSKYLDXQAAXEFIXWLLQT
modifications: not fully specified; Aib at 2; Glu*16 and Lys*20 cyclized through their side chains to a lactam; Lys(N-omega(1-octyl beta-D-glucuronyl)) at 24; C-terminal amide (NH2)
How did the “EC50 cAMP (DiscoveRx)” value [1] turn out when B1 was run?
The value was 0.019 nM.

And the “EC50 cAMP (DiscoveRx)” value [2]?
The value was 0.009 nM.

B2: EU-A391 (peptide)
peptide: HXQGTXTSDYSKYLDXX
modifications: not fully specified; 1-dodecyl alkyl glycoside surfactant on a linker residue (position not given)
With B2 as the binder, how does the “EC50, cAMP stimulation in cells (Cerep)” value [3] read?
The value was 420 nM.
